# B1: scFv; the commonest letter at each place (parent)
# chain 1: EVKLDETGGGLVQPGRPMKLSCVASGFTFSDYWMNWVRQSPEKGLEWVAQIRNKPYNYETYYSDSVKGRFTISRDDSKSSVYLQMNNLRVEDMGIYYCTGSYYGMDYWGQGTSVTVS
# chain 2: DVVMTQTPLSLPVSLGDQASISCRSSQSLVHSNGNTYLRWYLQKPGQSPKVLIYKVSNRFSGVPDRFSGSGSGTDFTLKISRVEAEDLGVYFCSQSTHVPWTFGGGTKLEIK
# How the values were obtained:
# [1] = variants of: B1; test: Kd (Tite-Seq); details: with fluorescein; format: scFv 4-4-20, heavy + light
# [2] = variants of: B1; test: yeast surface expression (ratio to wild type); higher = more expressed; details: format: scFv 4-4-20, heavy + light
Variant,Kd [1],yeast surface expression [2]
chain 1 D31A,0.00343 µM,0.772
chain 1 D31A M34L V37G,0.021 µM,0.0111
chain 1 D31A N35T V37S,≥ 10 µM,0.281
chain 1 D31A V37E,≥ 10 µM,2.19
chain 1 D31A V37K,0.382 µM,0.623
chain 1 D31A W33I,≥ 10 µM,0.872
chain 1 D31A W33L,≥ 10 µM,0.534
chain 1 D31A W36H,≥ 10 µM,0.137
chain 1 D31A W36M,≥ 10 µM,0.551
chain 1 D31A Y32K M34C,≥ 10 µM,1.1
chain 1 D31C,0.0747 µM,0.608
chain 1 D31C M34E,0.579 µM,0.778
chain 1 D31C M34P,≥ 10 µM,0.56
chain 1 D31C N35Y,≥ 10 µM,0.763
chain 1 D31C V37K,≥ 10 µM,0.453
chain 1 D31C W33C,≥ 10 µM,0.579
chain 1 D31C W33G,≥ 10 µM,0.385
chain 1 D31C W33K,3.74 µM,0.675
chain 1 D31C W33P,≥ 10 µM,0.671
chain 1 D31C W36G,≥ 10 µM,0.738
chain 1 D31E,0.00278 µM,0.925
chain 1 D31E M34N,≥ 10 µM,0.61
chain 1 D31E M34P,≥ 10 µM,0.406

Variant,Kd [1],yeast surface expression [2]
chain 1 D31E V37L,≥ 10 µM,0.735
chain 1 D31E W33C,≥ 10 µM,0.827
chain 1 D31E W33N,≥ 10 µM,0.845
chain 1 D31E W36H,≥ 10 µM,0.658
chain 1 D31E W36Q,≥ 10 µM,0.326
chain 1 D31E Y32M,8.13 µM,0.789
chain 1 D31E Y32P,≥ 10 µM,0.77
chain 1 D31F,0.00547 µM,0.636
chain 1 D31F N35I,≥ 10 µM,1.11
chain 1 D31F N35S,≥ 10 µM,0.367
chain 1 D31F V37E,≥ 10 µM,0.257
chain 1 D31F W33I,≥ 10 µM,0.487
chain 1 D31F Y32V N35C,≥ 10 µM,0.0993
chain 1 D31G,0.00166 µM,0.887
chain 1 D31G M34C N35L,≥ 10 µM,0.825
chain 1 D31G N35A,≥ 10 µM,0.664
chain 1 D31G N35H,≥ 10 µM,0.64
chain 1 D31G N35Q,≥ 10 µM,0.746
chain 1 D31G V37N,0.00785 µM,0.512
chain 1 D31G W33P,≥ 10 µM,0.569
chain 1 D31G W33Q,≥ 10 µM,0.657
chain 1 D31G Y32D,≥ 10 µM,0.803
chain 1 D31G Y32L,0.0302 µM,0.645

Variant,Kd [1],yeast surface expression [2]
chain 1 D31H,0.00179 µM,0.763
chain 1 D31H M34Q,≥ 10 µM,0.268
chain 1 D31H M34Y,0.00279 µM,0.671
chain 1 D31H N35A W36R,≥ 10 µM,2.27
chain 1 D31H N35G,0.00468 µM,0.736
chain 1 D31H V37I,0.00062 µM,0.799
chain 1 D31H V37Q,0.00128 µM,0.928
chain 1 D31H W33L,≥ 10 µM,0.72
chain 1 D31H W33P,≥ 10 µM,0.631
chain 1 D31H Y32F,0.00194 µM,0.801
chain 1 D31H Y32S,8.56 µM,0.802
chain 1 D31I,≥ 10 µM,0.531
chain 1 D31I W33D,≥ 10 µM,0.632
chain 1 D31I W36E,≥ 10 µM,0.663
chain 1 D31I Y32A,0.00444 µM,0.779
chain 1 D31I Y32F,≥ 10 µM,0.369
chain 1 D31K,0.00154 µM,0.867
chain 1 D31K W33I M34N,≥ 10 µM,0.395
chain 1 D31K W33R V37C,≥ 10 µM,0.501
chain 1 D31K W36T,≥ 10 µM,0.343
chain 1 D31K Y32G,0.0729 µM,0.879
chain 1 D31L,0.00638 µM,0.509
chain 1 D31L N35F,≥ 10 µM,0.446

Variant,Kd [1],yeast surface expression [2]
chain 1 D31L V37F,0.0507 µM,0.743
chain 1 D31L V37K,9.5 µM,0.686
chain 1 D31L W33D,≥ 10 µM,0.81
chain 1 D31L W36H,≥ 10 µM,0.82
chain 1 D31L Y32A,0.0944 µM,0.73
chain 1 D31L Y32H N35V,≥ 10 µM,0.343
chain 1 D31L Y32M,≥ 10 µM,0.772
chain 1 D31L Y32M W36M,≥ 10 µM,0.543
chain 1 D31L Y32N,≥ 10 µM,0.847
chain 1 D31M,0.00194 µM,0.58
chain 1 D31M M34K,≥ 10 µM,0.564
chain 1 D31M W36A,≥ 10 µM,1.72
chain 1 D31M Y32N,≥ 10 µM,0.536
chain 1 D31M Y32S,≥ 10 µM,0.804
chain 1 D31M Y32V,≥ 10 µM,0.528
chain 1 D31N,0.000825 µM,1.1
chain 1 D31N M34A,0.00194 µM,0.614
chain 1 D31N N35S V37A,≥ 10 µM,0.656
chain 1 D31N N35T,≥ 10 µM,0.86
chain 1 D31N V37H,0.47 µM,0.626
chain 1 D31N V37I,0.00325 µM,0.855
chain 1 D31N W36C,≥ 10 µM,0.275
chain 1 D31N W36I,0.0287 µM,0.679

Variant,Kd [1],yeast surface expression [2]
chain 1 D31N Y32L,0.00546 µM,0.878
chain 1 D31N Y32M,0.00672 µM,0.945
chain 1 D31P,≥ 10 µM,0.853
chain 1 D31P M34V,≥ 10 µM,0.733
chain 1 D31P N35F,0.0302 µM,0.944
chain 1 D31P V37W,≥ 10 µM,0.565
chain 1 D31P W33F,≥ 10 µM,0.78
chain 1 D31P W33S,≥ 10 µM,0.352
chain 1 D31P W36I,≥ 10 µM,0.513
chain 1 D31P Y32K,≥ 10 µM,0.708
chain 1 D31P Y32L,≥ 10 µM,0.86
chain 1 D31P Y32W,≥ 10 µM,0.762
chain 1 D31Q,0.00258 µM,0.877
chain 1 D31Q N35L,≥ 10 µM,0.418
chain 1 D31Q V37P,0.00827 µM,0.0981
chain 1 D31Q W33T,≥ 10 µM,0.793
chain 1 D31Q W36V,≥ 10 µM,0.596
chain 1 D31Q Y32R V37Q,≥ 10 µM,0.133
chain 1 D31R,0.00204 µM,0.736
chain 1 D31R M34S,≥ 10 µM,0.507
chain 1 D31R N35S V37L,≥ 10 µM,0.577
chain 1 D31R W33S M34P,≥ 10 µM,0.182
chain 1 D31R W36M V37G,0.79 µM,3.04
